# Test results published in patent US20240409645A1 (DUALYX, published 2024).
# T1: human IL-2 receptor (IL-2Rα/IL-2Rβ/γc) (human, UniProt P01589 22-272; P14784 27-551; P31785 23-369)
# T1 sequence 1: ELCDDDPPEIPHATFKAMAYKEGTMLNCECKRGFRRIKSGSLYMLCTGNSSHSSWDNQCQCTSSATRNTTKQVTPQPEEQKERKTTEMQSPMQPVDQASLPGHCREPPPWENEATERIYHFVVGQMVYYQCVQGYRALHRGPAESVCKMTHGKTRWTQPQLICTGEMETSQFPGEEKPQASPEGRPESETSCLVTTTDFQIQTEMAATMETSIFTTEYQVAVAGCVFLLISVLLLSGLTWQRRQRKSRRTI
# T1 sequence 2: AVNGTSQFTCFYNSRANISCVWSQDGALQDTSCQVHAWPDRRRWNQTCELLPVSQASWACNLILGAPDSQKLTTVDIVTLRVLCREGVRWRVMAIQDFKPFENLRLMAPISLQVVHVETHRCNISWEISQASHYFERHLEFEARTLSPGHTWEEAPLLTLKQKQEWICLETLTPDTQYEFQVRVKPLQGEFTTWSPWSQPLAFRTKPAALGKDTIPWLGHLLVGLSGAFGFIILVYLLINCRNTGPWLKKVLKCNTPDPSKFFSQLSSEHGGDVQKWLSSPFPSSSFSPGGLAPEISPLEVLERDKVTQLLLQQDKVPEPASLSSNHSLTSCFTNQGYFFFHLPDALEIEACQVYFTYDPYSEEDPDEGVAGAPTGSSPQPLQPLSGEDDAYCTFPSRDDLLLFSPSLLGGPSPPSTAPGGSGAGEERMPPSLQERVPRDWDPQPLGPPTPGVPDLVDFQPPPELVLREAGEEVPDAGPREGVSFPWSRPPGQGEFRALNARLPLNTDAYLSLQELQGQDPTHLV
# T1 sequence 3: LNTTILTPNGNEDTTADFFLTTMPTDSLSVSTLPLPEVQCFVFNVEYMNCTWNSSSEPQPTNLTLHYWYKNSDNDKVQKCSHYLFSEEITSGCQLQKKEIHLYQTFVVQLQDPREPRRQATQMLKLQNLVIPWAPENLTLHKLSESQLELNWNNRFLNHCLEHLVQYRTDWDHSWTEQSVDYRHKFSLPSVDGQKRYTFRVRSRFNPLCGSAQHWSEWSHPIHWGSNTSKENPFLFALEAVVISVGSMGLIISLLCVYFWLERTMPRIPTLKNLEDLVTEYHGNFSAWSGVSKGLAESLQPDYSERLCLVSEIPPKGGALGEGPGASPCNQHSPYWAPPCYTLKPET
# Molecular target: T1, human IL-2 receptor (IL-2Rα/IL-2Rβ/γc)
# Experiment: cell-based or functional assay
"EC50 (nM) pSTAT5, NK, human PBMCs","EC50 (nM) pSTAT5, Treg, human PBMCs",Fold Max signal (% pSTAT5+) Treg/NK,"Max signal (% pSTAT5+), NK","Max signal (% pSTAT5+), Treg",fold EC50 NK/Treg,Binder
0.176 nM,< 0.1 pM,4 fold,26 % pSTAT5+,95 % pSTAT5+,> 1760 fold,DC00048 (other) chain 1: QVQLVESGGGLVQPGGSLRLSCATSGFTFRNNFMSWVRQAPGKGLEWVSTISYGGESTTYAESVKGRFTISRDNAKNTLYLQMNNLKPEDTAVYYCAKATSYDSIRSGSRGQGTQVTVSSGGGGSGGGGSGGGGSQVQLVESGGGLVQPGGSLRLSCATSGFTFRNNFMSWVRQAPGKGLEWVSTISYGGESTTYAESVKGRFTISRDNAKNTLYLQMNNLKPEDTAVYYCAKATSYDSIRSGSRGQGTQVTVSSDKTHTCPPCPAPEAAGGPSVFLFPPKPKDTLMISRTPEVTCVVVDVSHEDPEVKFNWYVDGVEVHNAKTKPREEQYNSTYRVVSVLTVLHQDWLNGKEYKCKVSNKALGAPIEKTISKAKGQPREPQVYTLPPSRDELTKNQVSLTCLVKGFYPSDIAVEWESNGQPENNYKTTPPVLDSDGSFLLYSKLTVDKSRWQQGNVFSCSVMHEALHNHYTQKSLSLSPGK chain 2: QVQLVESGGGLVQPGGSLRLSCATSGFTFRNNFMSWVRQAPGKGLEWVSTISYGGESTTYAESVKGRFTISRDNAKNTLYLQMNNLKPEDTAVYYCAKATSYDSIRSGSRGQGTQVTVSSGGGGSGGGGSGGGGSQVQLVESGGGLVQAGGSLTLSCAAPGRTFGTDVVGWFRQAPGKEREFVASISRSGDGIYYDDSVKGRFTISRNNAWNTVNLQMNSLKVEDTAVYYCAAGDGWSTYDYWGQGTQVTVSSGGGGSGGGGSGGGGSEVQLVESGGGLVQTGGSLRLSCAASGGTFSRDAMAWFRQVPGKEREFVALISWSGATTNYADSVKGRFAISRDNGKNTVYLQMNRLKPADTAIYYCAADRRPMGSRSYFEPTEYDDWGQGTQVTVSSGGGGSGGGGSGGGGSDKTHTCPPCPAPEAAGGPSVFLFPPKPKDTLMISRTPEVTCVVVDVSHEDPEVKFNWYVDGVEVHNAKTKPREEQYNSTYRVVSVLTVLHQDWLNGKEYKCKVSNKALGAPIEKTISKAKGQPREPQVYTLPPSRDELTKNQVSLTCLVKGFYPSDIAVEWESNGQPENNYKTTPPVLDSDGSFFLYSRLTVDKSRWQQGNVFSCSVMHEALHNHYTQKSLSLSPGK
0.191 nM,< 0.1 pM,3 fold,33 % pSTAT5+,96 % pSTAT5+,> 1910 fold,DC00051 (other) chain 1: QVQLVESGGGLVQPGGSLRLSCATSGFTFRNNFMSWVRQAPGKGLEWVSTISYGGESTTYAESVKGRFTISRDNAKNTLYLQMNNLKPEDTAVYYCAKATSYDSIRSGSRGQGTQVTVSSGGGGSGGGGSGGGGSQVQLVESGGGLVQPGGSLRLSCATSGFTFRNNFMSWVRQAPGKGLEWVSTISYGGESTTYAESVKGRFTISRDNAKNTLYLQMNNLKPEDTAVYYCAKATSYDSIRSGSRGQGTQVTVSSDKTHTCPPCPAPEAAGGPSVFLFPPKPKDTLMISRTPEVTCVVVDVSHEDPEVKFNWYVDGVEVHNAKTKPREEQYNSTYRVVSVLTVLHQDWLNGKEYKCKVSNKALGAPIEKTISKAKGQPREPQVYTLPPSRDELTKNQVSLTCLVKGFYPSDIAVEWESNGQPENNYKTTPPVLDSDGSFLLYSKLTVDKSRWQQGNVFSCSVMHEALHNHYTQKSLSLSPGK chain 2: QVQLVESGGGLVQAGGSLTLSCAAPGRTFGTDVVGWFRQAPGKEREFVASISRSGDGIYYDDSVKGRFTISRNNAWNTVNLQMNSLKVEDTAVYYCAAGDGWSTYDYWGQGTQVTVSSGGGGSGGGGSGGGGSEVQLVESGGGLVQTGGSLRLSCAASGGTFSRDAMAWFRQVPGKEREFVALISWSGATTNYADSVKGRFAISRDNGKNTVYLQMNRLKPADTAIYYCAADRRPMGSRSYFEPTEYDDWGQGTQVTVSSGGGGSGGGGSGGGGSQVQLVESGGGLVQPGGSLRLSCATSGFTFRNNFMSWVRQAPGKGLEWVSTISYGGESTTYAESVKGRFTISRDNAKNTLYLQMNNLKPEDTAVYYCAKATSYDSIRSGSRGQGTQVTVSSDKTHTCPPCPAPEAAGGPSVFLFPPKPKDTLMISRTPEVTCVVVDVSHEDPEVKFNWYVDGVEVHNAKTKPREEQYNSTYRVVSVLTVLHQDWLNGKEYKCKVSNKALGAPIEKTISKAKGQPREPQVYTLPPSRDELTKNQVSLTCLVKGFYPSDIAVEWESNGQPENNYKTTPPVLDSDGSFFLYSRLTVDKSRWQQGNVFSCSVMHEALHNHYTQKSLSLSPGK
0.198 nM,0.00336 nM,4 fold,27 % pSTAT5+,95 % pSTAT5+,59 fold,DC00049 (other) chain 1: QVQLVESGGGLVQPGGSLRLSCATSGFTFRNNFMSWVRQAPGKGLEWVSTISYGGESTTYAESVKGRFTISRDNAKNTLYLQMNNLKPEDTAVYYCAKATSYDSIRSGSRGQGTQVTVSSGGGGSGGGGSGGGGSQVQLVESGGGLVQPGGSLRLSCATSGFTFRNNFMSWVRQAPGKGLEWVSTISYGGESTTYAESVKGRFTISRDNAKNTLYLQMNNLKPEDTAVYYCAKATSYDSIRSGSRGQGTQVTVSSDKTHTCPPCPAPEAAGGPSVFLFPPKPKDTLMISRTPEVTCVVVDVSHEDPEVKFNWYVDGVEVHNAKTKPREEQYNSTYRVVSVLTVLHQDWLNGKEYKCKVSNKALGAPIEKTISKAKGQPREPQVYTLPPSRDELTKNQVSLTCLVKGFYPSDIAVEWESNGQPENNYKTTPPVLDSDGSFLLYSKLTVDKSRWQQGNVFSCSVMHEALHNHYTQKSLSLSPGK chain 2: QVQLVESGGGLVQAGGSLTLSCAAPGRTFGTDVVGWFRQAPGKEREFVASISRSGDGIYYDDSVKGRFTISRNNAWNTVNLQMNSLKVEDTAVYYCAAGDGWSTYDYWGQGTQVTVSSGGGGSGGGGSGGGGSEVQLVESGGGLVQTGGSLRLSCAASGGTFSRDAMAWFRQVPGKEREFVALISWSGATTNYADSVKGRFAISRDNGKNTVYLQMNRLKPADTAIYYCAADRRPMGSRSYFEPTEYDDWGQGTQVTVSSGGGGSGGGGSGGGGSDKTHTCPPCPAPEAAGGPSVFLFPPKPKDTLMISRTPEVTCVVVDVSHEDPEVKFNWYVDGVEVHNAKTKPREEQYNSTYRVVSVLTVLHQDWLNGKEYKCKVSNKALGAPIEKTISKAKGQPREPQVYTLPPSRDELTKNQVSLTCLVKGFYPSDIAVEWESNGQPENNYKTTPPVLDSDGSFFLYSRLTVDKSRWQQGNVFSCSVMHEALHNHYTQKSLSLSPGK
0.0326 nM,0.00134 nM,7 fold,8 % pSTAT5+,56 % pSTAT5+,24 fold,DC00050 (other) chain 1: QVQLVESGGGLVQPGGSLRLSCATSGFTFRNNFMSWVRQAPGKGLEWVSTISYGGESTTYAESVKGRFTISRDNAKNTLYLQMNNLKPEDTAVYYCAKATSYDSIRSGSRGQGTQVTVSSGGGGSGGGGSGGGGSQVQLVESGGGLVQPGGSLRLSCATSGFTFRNNFMSWVRQAPGKGLEWVSTISYGGESTTYAESVKGRFTISRDNAKNTLYLQMNNLKPEDTAVYYCAKATSYDSIRSGSRGQGTQVTVSSDKTHTCPPCPAPEAAGGPSVFLFPPKPKDTLMISRTPEVTCVVVDVSHEDPEVKFNWYVDGVEVHNAKTKPREEQYNSTYRVVSVLTVLHQDWLNGKEYKCKVSNKALGAPIEKTISKAKGQPREPQVYTLPPSRDELTKNQVSLTCLVKGFYPSDIAVEWESNGQPENNYKTTPPVLDSDGSFLLYSKLTVDKSRWQQGNVFSCSVMHEALHNHYTQKSLSLSPGK chain 2: QVQLVESGGGLVQPGGSLRLSCATSGFTFRNNFMSWVRQAPGKGLEWVSTISYGGESTTYAESVKGRFTISRDNAKNTLYLQMNNLKPEDTAVYYCAKATSYDSIRSGSRGQGTQVTVSSGGGGSGGGGSGGGGSEVQLVESGGGLVQTGGSLRLSCAASGGTFSRDAMAWFRQVPGKEREFVALISWSGATTNYADSVKGRFAISRDNGKNTVYLQMNRLKPADTAIYYCAADRRPMGSRSYFEPTEYDDWGQGTQVTVSSGGGGSGGGGSGGGGSQVQLVESGGGLVQAGGSLTLSCAAPGRTFGTDVVGWFRQAPGKEREFVASISRSGDGIYYDDSVKGRFTISRNNAWNTVNLQMNSLKVEDTAVYYCAAGDGWSTYDYWGQGTQVTVSSGGGGSGGGGSGGGGSDKTHTCPPCPAPEAAGGPSVFLFPPKPKDTLMISRTPEVTCVVVDVSHEDPEVKFNWYVDGVEVHNAKTKPREEQYNSTYRVVSVLTVLHQDWLNGKEYKCKVSNKALGAPIEKTISKAKGQPREPQVYTLPPSRDELTKNQVSLTCLVKGFYPSDIAVEWESNGQPENNYKTTPPVLDSDGSFFLYSRLTVDKSRWQQGNVFSCSVMHEALHNHYTQKSLSLSPGK
